Measurements: patent publication US20260028403A1 (Zymeworks, published 2026)
Substitutions are numbered along the chain they refer to. Names may count otherwise. One block for each binder: values may come before it.

Legend:
[1] = biological target: T1, CD28 on primary human T cells (human, UniProt P10747 19-220); experiment: cell-based or functional assay
[2] = biological target: T2, Recombinant human/cynomolgus/rhesus macaque CD28 mouse IgG2a Fc fusion protein (Acro Biosystems) (human/cynomolgus/rhesus macaque, UniProt P10747 19-152); experiment: SPR Biacore T200, CD28-mIgG2a Fc on CM5
T2 construct: bought; also called huCD28

[3] = biological target: T1, CD28 on primary human T cells; experiment: cell-based or functional assay; remark: listed apart in the source
[4] = biological target: T3, Recombinant human CD3 epsilon/delta heterodimer, his tag protein (Acro Biosystems) (human, UniProt P07766 23-126; P04234 22-105); experiment: SPR Biacore T200, CD3 e/d-his on CM5, construct injected, 1:1 model;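 note: measured at 25 °C in HEPES-buffered saline with EDTA and Tween 20 at pH 7.4, values are means of three independent runs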
T3 construct: bought
Description: All SPR binding experiments were carried out using a BiacoreT200 instrument at 25° C. with 10 mM HEPES, 150 mM NaCl, 3 mM EDTA, and 0.05% Tween 20 at pH 7.4. Recombinant human CD3 epsilon/delta heterodimer, his tag protein (Acro Biosystems) was covalently immobilized on CM5 sensor chips by amine coupling. Purified antibody constructs to be tested were indirectly captured on the sensor chip by binding to the recombinant CD3 protein when injected at 30 μL/min for 140-500 s following a dissociation for 600-1200 s. Resultant kₒₙ, koff and KD values were determined from fitting the sensorgrams using the 1:1 binding model with reported values as the mean of three independent runs.

Human CLDN18.2 = biological target: T4, Human CLDN18.2 (human); experiment: flow cytometry, SNU 601 cells
T4 construct: on transfected HEK293-6E cells or native on SNU 601 cells

[5] = biological target: T5, Recombinant human/Cynomolgus/Rhesus macaque CD28 Protein, His Tag (Acro Biosystems) (human/cynomolgus/rhesus macaque, UniProt P10747 19-152); experiment: SPR, v37634 captured on anti-human IgG Fc on CM5, CD28-his tag flowed
T5 construct: used only for v37634; also called CD28-his tag

[6] = biological target: T1, CD28 on primary human T cells; experiment: cell-based or functional assay; remark: listed apart in the source
[7] = biological target: T2, Recombinant human/cynomolgus/rhesus …; experiment: SPR Biacore T200, CD28-mIgG2a Fc on CM5, construct injected, 1:1 model;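 note: fc fusion captured by amine coupling, run at 25 °C in HEPES buffer pH 7.4, association 140-500 s then dissociation 600-1200 s, values averaged over three independent runs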
Description: All SPR binding experiments were carried out using a BiacoreT200 instrument at 25° C. with 10 mM HEPES, 150 mM NaCl, 3 mM EDTA, and 0.05% Tween 20 at pH 7.4. Recombinant human/cynomolgus/rhesus macaque CD28 mouse IgG2a Fc fusion protein (Acro Biosystems) was covalently immobilized on CM5 sensor chips by amine coupling. Purified antibody constructs to be tested were injected on the sensor chip at 30 μL/min for 140-500 s following a dissociation for 600-1200 s. Resultant kₒₙ, koff and KD values were determined from fitting the sensorgrams using the 1:1 binding model with reported values as the mean of three independent runs.

[8] = biological target: T2, Recombinant human/cynomolgus/rhesus …; experiment: SPR, in-format anti-CD28 variants, huCD28
[9] = biological target: T1, CD28 on primary human T cells; experiment: cell-based or functional assay; remark: listed apart in the source
[10] = biological target: T1, CD28 on primary human T cells; experiment: cell-based or functional assay; remark: listed apart in the source

B1: v37690 (trispecific antibody, human IgG1, kappa, L234A L235A)
heavy 1: not shown
heavy 2: QVQLVESGGGLVQPGGSLRLSCSVSGIDLSSNPMIWVRQAPGKGLQYIGIIDTDGSTYYADWAKGRFTISKDSTTVYLQINSPRAEDTAVYYCARRLHGSSNGYYDDLWGQGTLVTVSSGGGGSGGGGSGGGGSGGGGSDGQMTQSPSSVSASVGDRVTITCQASQSIYSYLSWYQQKPGQRPKLLIYKASTLASGVPSRFSGSGSGTDFTLTISSVQPEDFATYYCQQGYTVTNVDKNTFGGGTKVEIKAAEPKSSDKTHTCPPCPAPEAAGGPSVFLFPPKPKDTLMISRTPEVTCVVVSVSHEDPEVKFNWYVDGVEVHNAKTKPREEQYNSTYRVVSVLTVLHQDWLNGKEYKCKVSNKALPAPIEKTISKAKGQPREPQVYVLPPSRDELTKNQVSLLCLVKGFYPSDIAVEWESNGQPENNYLTWPPVLDSDGSFFLYSKLTVDKSRWQQGNVFSCSVMHEALHNHYTQKSLSLSPG
light: DIQMTQSPSSLSASVGDRVTITCRASESVEYYVTSLMQWYQQKPGKAPKLLIYAASNVDSGVPSRFSGSGSGTDFTLTISSLQPEDIATYYCQQSRKVPFTFGGGTKVEIKRTVAAPSVFIFPPSDEQLKSGTASVVCLLNNFYPREAKVQWKVDNALQSGNSQESVTEQDSKDSTYSLSSTLTLSKADYEKHKVYACEVTHQGLSSPVTKSFNRGEC
notes: also called v37638 format, CD28 VH Y1112S
- IC50, T cell-dependent cytotoxicity on SNU 601 [1]: 0.00121 nM
- Maximum Killing (%), SNU 601 [1]: 92.3%
- binding result [2]: no binding
- IL-2 maximum cytokine, T cells alone [3]: 243 pg/mL
- IL-2 maximum cytokine, T cells with SNU 601 cells [3]: 2700 pg/mL
- TNFa maximum cytokine, T cells alone [3]: 23 pg/mL
- TNFa maximum cytokine, T cells with SNU 601 cells [3]: 518 pg/mL

B2: v37634 (trispecific antibody, human IgG1, lambda, L234A L235A)
heavy 1: not shown
heavy 2: B1 heavy 2
light: NFMLTQPHSVSESPGKTVTISCKRNTGNIGSNYVNWYQQHEGSSPTTIIYRNDKRPDGVSDRFSGSIDRSSKSASLTISNLKTEDEADYFCQSYSSGFIFGGGTKLTVLGQPKAAPSVTLFPPSSEELQANKATLVCLISDFYPGAVTVAWKADSSPVKAGVETTTPSKQSNNKYAASSYLSLTPEQWKSHRSYSCQVTHEGSTVEKTVAPTECSGGGGSGDIQMTQSPSSLSASVGDRVTITCRASESVEYYVTSLMQWYQQKPGKAPKLLIYAASNVDSGVPSRFSGSGSGTDFTLTISSLQPEDIATYYCQQSRKVPFTFGGGTKVEIKGGGGSGGGGSGGGGSGGGGSQVQLQESGPGLVKPSETLSLTCAVSGFSLTSYGVHWIRQPPGKGLEWLGVIWPGGGTNFNSALMSRLTISEDTSKNQVSLKLSSVTAADTAVYYCARDRAYGNYLYAMDYWGQGTLVTVSS
notes: CD28 scFv on C-terminus of the CD3 Fab light chain; Het Fc, FcKO; also called CD3xCD28xCldn18.2 trispecific
- Kd [4]: 77.6 nM
- koff [4]: 0.0123 s⁻¹
- kon [4]: 163000 M⁻¹ s⁻¹
- Bmax (Human CLDN18.2): 6840 MFI
- EC50 (Human CLDN18.2): 27.2 nM
- Kd [5]: 258 nM
- koff [5]: 0.00187 s⁻¹
- kon [5]: 7230 M⁻¹ s⁻¹

B3: v37642 (trispecific antibody, human IgG1, kappa, L234A L235A)
heavy 1: not shown
heavy 2: EVQLVESGGGLVQPGGSLRLSCAASGVTFNYYGMSWIRQAPGKGLEWVASITSSGGRIYYPDSVKGRFTISRENTQKTLYLQMNSLRAEDTAVYYCTLDGRDGWVAYWGQGTLVTVSSGGGGSGGGGSGGGGSGGGGSNFMLTQPHSVSESPGKTVTISCKRNTGNIGSNYVNWYQQHEGSSPTTIIYRNDKRPDGVSDRFSGSIDRSSKSASLTISNLKTEDEADYFCQSYSSGFIFGGGTKLTVLAAEPKSSDKTHTCPPCPAPEAAGGPSVFLFPPKPKDTLMISRTPEVTCVVVSVSHEDPEVKFNWYVDGVEVHNAKTKPREEQYNSTYRVVSVLTVLHQDWLNGKEYKCKVSNKALPAPIEKTISKAKGQPREPQVYVLPPSRDELTKNQVSLLCLVKGFYPSDIAVEWESNGQPENNYLTWPPVLDSDGSFFLYSKLTVDKSRWQQGNVFSCSVMHEALHNHYTQKSLSLSPG
light: B1 light
notes: also called Cldn18.2xCD28xCD3 trispecific
- Kd [4]: 62 nM
- koff [4]: 0.0117 s⁻¹
- kon [4]: 189000 M⁻¹ s⁻¹
- IFNg EC50, T cells + SNU 601 [6]: 0.00367 nM
- IFNg maximum cytokine, T cells + SNU 601 [6]: 3040 pg/mL
- IL-2 EC50, T cells + SNU 601 [6]: 0.00267 nM
- IL-2 maximum cytokine, T cells + SNU 601 [6]: 5060 pg/mL
- Kd [7]: 20.2 nM
- koff [7]: 0.00198 s⁻¹
- kon [7]: 98200 M⁻¹ s⁻¹
- Bmax (Human CLDN18.2): 9310 MFI
- EC50 (Human CLDN18.2): 24.1 nM
- Fold-change from WT [8]: 1 fold
- Kd [8]: 42.3 nM
- koff [8]: 0.00286 s⁻¹
- kon [8]: 70400 M⁻¹ s⁻¹
- IFNg mean cytokine, T cells alone, 45 nM construct [9]: 857 pg/mL
- IL-2 mean cytokine, T cells alone, 45 nM construct [9]: 2930 pg/mL
- IC50, TDCC on SNU 601-RFP, 1:5 E:T [10]: 0.0023 nM
- IC50, TDCC on SNU 601-RFP, 2:1 E:T [10]: 0.000166 nM
- Maximum Mean Cytotoxicity (%), 1:5 E:T [10]: 96.9%
- Maximum Mean Cytotoxicity (%), 2:1 E:T [10]: 98.7%

B8: v37694 (trispecific antibody, human IgG1, kappa, L234A L235A)
heavy 1: not shown
heavy 2: B1 heavy 2
light: B1 light with Y31A
notes: also called v37638 format, CD28 VL Y1031A
- IC50, T cell-dependent cytotoxicity on SNU 601 [1]: 0.00144 nM
- Maximum Killing (%), SNU 601 [1]: 93.1%
- binding result [2]: no binding
- IL-2 maximum cytokine, T cells alone [3]: 29.9 pg/mL
- IL-2 maximum cytokine, T cells with SNU 601 cells [3]: 226 pg/mL
- TNFa maximum cytokine, T cells alone [3]: 12.9 pg/mL
- TNFa maximum cytokine, T cells with SNU 601 cells [3]: 166 pg/mL

Further lines, with some results ahead:

- IFNg EC50, T cells + SNU 601 [6]: 0.604 nM
- IFNg maximum cytokine, T cells + SNU 601 [6]: 3290 pg/mL
- IL-2 EC50, T cells + SNU 601 [6]: 1.56 nM
- IL-2 maximum cytokine, T cells + SNU 601 [6]: 5240 pg/mL
- Fold-change from WT [8]: 225 fold
- Kd [8]: 9510 nM
- IFNg mean cytokine, T cells alone, 45 nM construct [9]: 0.9 pg/mL
- IL-2 mean cytokine, T cells alone, 45 nM construct [9]: 1.8 pg/mL
- IC50, TDCC on SNU 601-RFP, 1:5 E:T [10]: 0.145 nM
- IC50, TDCC on SNU 601-RFP, 2:1 E:T [10]: 0.00358 nM
B4: v38990 (trispecific antibody, human IgG1, kappa, L234A L235A)
heavy 1: not shown
heavy 2: B3 heavy 2
light: B1 light
notes: also called v37642 format, CD28 VH Y1113S
- Maximum Mean Cytotoxicity (%), 1:5 E:T [10]: 95.4%
- Maximum Mean Cytotoxicity (%), 2:1 E:T [10]: 97.8%

- IFNg EC50, T cells + SNU 601 [6]: 0.023 nM
- IFNg maximum cytokine, T cells + SNU 601 [6]: 3990 pg/mL
- IL-2 EC50, T cells + SNU 601 [6]: 0.00916 nM
- IL-2 maximum cytokine, T cells + SNU 601 [6]: 5560 pg/mL
- Fold-change from WT [8]: 3.1 fold
- Kd [8]: 130 nM
- koff [8]: 0.00738 s⁻¹
- kon [8]: 59800 M⁻¹ s⁻¹
- IFNg mean cytokine, T cells alone, 45 nM construct [9]: 559 pg/mL
- IL-2 mean cytokine, T cells alone, 45 nM construct [9]: 1690 pg/mL
B5: v38992 (trispecific antibody, human IgG1, kappa, L234A L235A)
heavy 1: not shown
heavy 2: B3 heavy 2
light: B1 light
notes: also called v37642 format, CD28 VH G1064S

- IFNg EC50, T cells + SNU 601 [6]: 0.0793 nM
- IFNg maximum cytokine, T cells + SNU 601 [6]: 4450 pg/mL
- IL-2 EC50, T cells + SNU 601 [6]: 0.0287 nM
- IL-2 maximum cytokine, T cells + SNU 601 [6]: 8410 pg/mL
- Fold-change from WT [8]: 3.4 fold
- Kd [8]: 144 nM
- koff [8]: 0.00817 s⁻¹
- kon [8]: 59000 M⁻¹ s⁻¹
- IFNg mean cytokine, T cells alone, 45 nM construct [9]: 475 pg/mL
- IL-2 mean cytokine, T cells alone, 45 nM construct [9]: 1520 pg/mL
B6: v38993 (trispecific antibody, human IgG1, kappa, L234A L235A)
heavy 1: not shown
heavy 2: B3 heavy 2
light: B1 light
notes: also called v37642 format, CD28 VH L1112aN

- IFNg EC50, T cells + SNU 601 [6]: 0.0909 nM
- IFNg maximum cytokine, T cells + SNU 601 [6]: 6150 pg/mL
- IL-2 EC50, T cells + SNU 601 [6]: 0.0222 nM
- IL-2 maximum cytokine, T cells + SNU 601 [6]: 9620 pg/mL
- Fold-change from WT [8]: 6.1 fold
- Kd [8]: 257 nM
- koff [8]: 0.0145 s⁻¹
- kon [8]: 62900 M⁻¹ s⁻¹
- IFNg mean cytokine, T cells alone, 45 nM construct [9]: 15.4 pg/mL
- IL-2 mean cytokine, T cells alone, 45 nM construct [9]: 26.5 pg/mL
- IC50, TDCC on SNU 601-RFP, 1:5 E:T [10]: 0.0127 nM
- IC50, TDCC on SNU 601-RFP, 2:1 E:T [10]: 0.000838 nM
B7: v38991 (trispecific antibody, human IgG1, kappa, L234A L235A)
heavy 1: not shown
heavy 2: B3 heavy 2
light: B1 light
notes: also called v37642 format, CD28 VH N1111aA
- Maximum Mean Cytotoxicity (%), 1:5 E:T [10]: 95.6%
- Maximum Mean Cytotoxicity (%), 2:1 E:T [10]: 98.2%
